The target in one experiment is GST-WAVE2 (UniProt Q9Y6W5). The experiment is described as follows: pull-down.
Another experiment deals with FLAG-WAVE2 (UniProt Q9Y6W5). The experiment is described as follows: co-IP.

We go through 2 substances from PMC3427469.

Chain of GST-WAVE2 (Q9Y6W5 whole entry): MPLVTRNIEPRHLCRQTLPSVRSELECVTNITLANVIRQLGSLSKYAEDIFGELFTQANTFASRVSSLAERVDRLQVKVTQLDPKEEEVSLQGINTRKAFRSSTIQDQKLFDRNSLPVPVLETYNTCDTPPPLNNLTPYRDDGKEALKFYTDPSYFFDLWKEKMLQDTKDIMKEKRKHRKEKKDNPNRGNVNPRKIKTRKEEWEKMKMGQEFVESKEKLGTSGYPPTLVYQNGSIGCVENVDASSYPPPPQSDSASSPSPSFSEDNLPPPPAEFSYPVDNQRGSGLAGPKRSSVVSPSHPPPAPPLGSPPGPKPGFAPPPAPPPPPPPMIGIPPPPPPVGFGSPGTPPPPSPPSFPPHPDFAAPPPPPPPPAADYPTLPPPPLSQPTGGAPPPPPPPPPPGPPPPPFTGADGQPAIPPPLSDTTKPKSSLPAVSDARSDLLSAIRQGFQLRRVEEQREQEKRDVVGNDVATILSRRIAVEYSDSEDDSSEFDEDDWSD
Chain of FLAG-WAVE2 (Q9Y6W5 whole entry): as above

With “Arp2/3 complex (purified) (from UniProt P61158 1-418)”, in the experiment with GST-WAVE2, the KD in the presence of Exo70 is 210 nM, the Kd (usually the concentration at which binding is half-saturated) was 470 nM and the fold increase of Arp2/3 bound in the presence of Exo70 against BSA worked out at 3.5 fold.
With “Arp2/3 complex, endogenous in MDA-MB-231 cells (from UniProt P61158 1-418)”, the Arp3 co-precipitated after Exo70 siRNA, percent of control siRNA-treated cells with FLAG-WAVE2 amounted to 44%.
